Laboratory results taken from the supplement of paper PMC9170038.

System: MS2 coat protein
Experiment: apparent KD of MS2 coat protein; designed switch direction (-1 OFF switch, 1 ON switch): -1; higher = weaker reporter binding
Outline: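 Designed RNA switches sharing common flanks were transcribed on Illumina chips by stalled E. coli RNA polymerase. They were titrated with SNAP-549-labelled MS2 coat protein, from 0.7 or 1.5 nM doubling to 3 µM, in Tris-HCl pH 7.5 buffer with KCl, MgCl2, BSA, DTT, tRNA and Tween-20. Titrations ran without input, with 200 uM small-molecule ligand, or with an oligonucleotide input. The apparent KD of each design is the median over its clusters, after curve-fitting of normalised cluster fluorescence.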

[1] = Eterna round: R95, input ligand: microRNA oligo, concentration not stated
[2] = input ligand: microRNA oligo, concentration not stated
[3] = Eterna round: R95, input ligand: FMN 200 uM
[4] = Eterna round: R95, input ligand: none

Sequence | apparent KD of MS2 coat protein (input ligand: FMN 200 uM) [nM] | apparent KD of MS2 coat protein (input ligand: none) [nM] | apparent KD of MS2 coat protein [1] [nM] | apparent KD of MS2 coat protein [2] [nM] | apparent KD of MS2 coat protein [3] [nM] | apparent KD of MS2 coat protein [4] [nM]
GCCUUAUCUGUCAGGAUAUACAAUAAAAUAACUUUGUAGAAGGGACAUGAGGAUCACCCAUGUACAUUACAUUG [alecazam24b] (Eterna round: R97, puzzle: Brourd's mod of Exclusion 4) | 63.1 | 24.6 | – | – | – | –
AGUGCGUAUGUGAGGAUAUGCUGGUCCUUGGAUCAGCAGAAGGCACAUGAGGAUCACCCAUGUGGUGUCGUACU [salish99_Bmod_Ex4_005] (puzzle: Brourd's mod of Exclusion 4) | – | – | 190 | – | – | –
AUGAGGUUAGGAUAUACAUGAGGAUCACCCAUGUUGAAGGGUUAGGUAGGCGGAGCUGGUAGAAGGAACGGAGC [JR_Exclu3_Sub057] (Eterna round: R96, puzzle: Exclusion 3) | 44.3 | 55.3 | – | 31.9 | – | –
ACAAGCUUUUGCUCGUCUUACAUGAGGAUCACCCAUGUCGGGAACAUGCAUACAUACAACAUAUAAACAGUAACAGA [high energy, high % A (36%)] (Eterna round: R97, puzzle: Sensor, turn-off variant 1) | 20.1 | 21.2 | – | – | – | –
GUAGAGUCAGGAUAUACAAGAUCGAUAGAUCGGCGAUCCAUACAUGAGGAUCACCCAUGUAGAAGGGACUCUAC [Mat - Exclusion 2 - Eli Mod - D3] (Eterna round: R97, puzzle: Exclusion 2) | 693 | 40.2 | – | – | – | –
UUUAUAUAGUAAGGAUAUGUAUUAAUUUUAUCAACAGAAGGUACUGACAUGAGGAUCACCCAUGUUUUAGUGUGGGCAUGUAGU [JMF's solution 93] (Eterna round: R96, puzzle: Exclusion NG 1) | 543 | 536 | – | 493 | – | –
GCACGGAGUGUAGGAUAUCUGUGCGAUUAGCUCAGAGAAGGACAUGAGGAUCACCCAUGUGUGUUCCAAUAAUAAAAUCCGUGC [Eli exng1 - 063] (Eterna round: R96, puzzle: Exclusion NG 1) | 1500 | 329 | – | 270 | – | –
GGUCAGAUGGUAGGAUAUCCAUAUCGAGUGACUCUUUCAUAACAUGAGGAUCACCCAUGUCGGUGGGAGAAGGGCCGUACGGCG [salish99_ExNG02_R04_016] (Eterna round: R96, puzzle: Exclusion NG 2) | 38.9 | 36.6 | – | 23.3 | – | –
GAUUGACAUGAGGAUCACCCAUGUGAGGAUAUCGGCCGGACCUUGUUAGCUUCCACCGCGAGAAGGCACAUCGG [Exclusion 1 V30] (puzzle: Exclusion 1) | – | – | 17 | – | – | –
AAAGCGUGAGGAUAUGAGGCGCCGGGCCGGUUGGUGCGGAUUCAGAAGGCACAUGAGGAUCACCCAUGUAGGAA [Excls4-III] (puzzle: Exclusion 4) | – | – | 22.9 | – | – | –
AUCGUGCAGCUUUGCUGUACGAGUACAUGAGGAUCACCCAUGUAGGAUAUGGUACGCUUUGCGUGCUAGAAGGAUAUGUGUUUG [EX ENG3 1.44] (Eterna round: R96, puzzle: Exclusion NG 3) | 58.6 | 43.4 | – | 29.8 | – | –
GCAGCAUAGUUUACUAACUGUUACAUGAGGAUCACCCAUGUCUAGGAUAUGGUCUGGAUUACAGGCCAGAAGGAGACAAGCUGC [Eli exng3 - 034] (Eterna round: R96, puzzle: Exclusion NG 3) | 14.1 | 16.6 | – | 12.1 | – | –
ACAAGUUUUUUGUUUUUUAACAUGAGGAUCACCCAUGUAUUUUUAGAGGAUGUGGGAAUAAGAGCUCUUUGUCUUAU [JR_SV3TOV1_Sub097] (puzzle: Sensor v3, turn-off variant 1) | – | – | 90.3 | – | 38.6 | 41.2
UAUUGCAAGUGAGGAUAUGACAUGAGGAUCACCCAUGUAAAGGGAGUUGGCUAUAUAGCAAGAUAUCAGAAGGCACAACUGUAU [JR_ExcNG2_Sub005] (Eterna round: R96, puzzle: Exclusion NG 2) | 76.7 | 64.3 | – | 25.9 | – | –
UAUGUAUACGUCAGGAUAUACGGUCCAGAUGGUAAGUAGAAGGGACAUGAGGAUCACCCAUGUAUAAUAAUAAU [AK 1] (puzzle: Brourd's mod of Exclusion 4) | – | – | 18 | – | 20.2 | 22.5
AGCUGUGGCCGAGGAUAUCUGUUCCAUAAAACCGAAAUAUAAUCGGACAUGAGGAUCACCCAUGUAGAGAAGGCGGUCUCAGCA [Eli eng2 - 099] (Eterna round: R96, puzzle: Exclusion NG 2) | – | – | – | 18.3 | – | –
AAAAAGCGAGGAUAUGCGGGCGGGUGCGGCCAGCCGAUGUGACAUGAGGAUCACCCAUGUAGAAGGCGCAAAAA [Excls2-VII] (puzzle: Exclusion 2) | – | – | 12.3 | – | – | –
AUAAUACAUGAGGAUCACCCAUGUGAGGAUAUACGACUCCAACCAAACUGCUUGGACCGUAGAAGGCACAAGGG [Exclusion 1 (MOD1 Esqu)] (Eterna round: R97, puzzle: Exclusion 1) | 22.7 | 589 | – | – | – | –
